This assay addresses human ALDH2 T244A substituted enzyme (human) (UniProt P05091). The assay can be described thus: crystal structure.

As a reminder, the stoichiometry N is a count of units in the complex or per binding partner. Substance “human ALDH2 T244A substituted enzyme (from UniProt P05091 18-517)” showed a stoichiometry N of 4.

For the origin of these results see paper PMC3602351.
